According to patent US20220281998A1 (AZUSAPHARMA SCIENCES, published 2022):

Experiments:
[1] = biological target: human EGFR on human cancer cell lines (HCT116, A-431, NCI-H1975, HT-29, RKO) (human, UniProt P00533 25-1210); assay: cell-based or functional assay
[2] = biological target: T1, recombinant biotinylated HER2 (manufactured by ACROBiosystems) (human, UniProt P04626 23-652, biotinylated (site not stated)); assay: sandwich ELISA: immobilised human CD3E/CD3D heterodimer, BsAb, detection with biotinylated HER2
T1 construct: also called human HER2

[3] = biological target: T2, human CD3E/CD3D heterodimer recombinant protein (manufactured by ACROBiosystems) (human, UniProt P07766 23-126; P04234 22-105); assay: ELISA, immobilised human CD3E/CD3D heterodimer, 10-1000 ng/mL BsAb, absorbance rose with concentration
T2 construct: Bought reagent, immobilised on ELISA plates
T2 sequence (P07766 23-126 limits assumed, chain 1 of 2): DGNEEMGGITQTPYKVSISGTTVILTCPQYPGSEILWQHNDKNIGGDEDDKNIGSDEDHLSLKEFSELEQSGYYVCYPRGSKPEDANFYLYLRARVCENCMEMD
T2 sequence (P04234 22-105 limits assumed, chain 2 of 2): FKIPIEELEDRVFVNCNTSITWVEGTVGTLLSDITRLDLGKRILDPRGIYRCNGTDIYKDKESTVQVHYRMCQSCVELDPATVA

B1: LH31 diabody-type BsAb (EGFR×CD3 diabody-type BsAb derived from DUM-31H strain) (bispecific antibody)
chain 1: ATLTPDIQMTQSPSSLSASVGDRVTITCRASQDIRNYLNWYQQKPGKAPKLLIYYTSRLESGVPSRFSGSGSGTDYTLTISSLQPEDFATYYCQQGNTLPWTFGQGTKVEIKAAGGGGSEVQLVESGGGLVQPGGSLRLSCAASGFTLSGDWIHWVRQAPGKGLEWLGEISAAGGYTDYADSVKGRFTISADTSKNTAYLQMNSLRAEDTAVYYCARESRVSFEAAMDYWGQGTLVTVSSAAAAEQKLISEEDLNLGGGMRGSHHHHHH
chain 2: ATLTPDIQMTQSPSSLSASVGDRVTITCRASQDLATDVAWYQQKPGKAPKLLIYSASFLYSGVPSRFSGSGSGTDFTLTISSLQPEDFATYYCQQSEPEPYTFGQGTKVEIKAAGGGGSEVQLVESGGGLVQPGGSLRLSCAASGYSFTGYTMNWVRQAPGKGLEWVALINPYKGVSTYNQKFKDRFTISVDKSKNTAYLQMNSLRAEDTAVYYCARSGYYGDSDWYFDVWGQGTLVTVSSAAAEQKLISEEDLNLGGGMRGSHHHHHH
notes: Heterodimer of polypeptides 1 and 2, secreted by Bifidobacterium longum 105-A carrying pLH31-L5, purified through the His tag; also called LH31 polypeptide 1 + LH31 polypeptide 2 with SP50-L5
- EC50: concentration that reduced the viability of HCT116 cells to 50% (T-LAK:HCT116 5:1, 24 h) [1]: 0.032 nM
- binding result [2]: no binding
- binding result [3]: binds
